Results taken from patent US20140227287A1.

Molecular target: human βNGF (R&D Systems, Inc.) (human) (UniProt P01138)
Test: dynamic light scattering of antibody incubated with human βNGF

Chain of human βNGF (R&D Systems, Inc.) (human) (P01138 122-241 limits assumed): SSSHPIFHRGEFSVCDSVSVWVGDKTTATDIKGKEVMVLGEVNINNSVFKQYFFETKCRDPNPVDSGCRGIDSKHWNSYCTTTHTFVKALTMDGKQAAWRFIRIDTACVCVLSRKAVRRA

Particle size Average (d · nm), IgG + rhNGF: 12.6 nm·days
Particle size Peak (d · nm), IgG + rhNGF: 11.7 nm·days
Substance: Control IgG (antibody)
